We go through three molecules from publication PMC5481773 (2017).

B1: FEN1 PIP box peptide used for ITC (peptide)
chain: QGSTQGRLDDFFKVT
modifications: Exact limits are in the supplement. Window is the 15-mer homologous to ZRANB3 515-529, aligned on Q337. Termini chemistry not stated.
B2: Polι PIP box peptide used for ITC (peptide)
chain: NTAKKGLIDYYLMPS
modifications: Exact limits are in the supplement. Window is the 15-mer homologous to ZRANB3 515-529 (equal lengths stated); the PIP box KGLIDYYL is 421-428 in 715-aa numbering, +25 in the 740-aa entry. Check residues are not named in the paper. Termini chemistry not stated.
B3: p21 PIP box peptide used for ITC (peptide)
chain: RKRRQTSMTDFYHSK
modifications: Exact limits are in the supplement. Window is the 15-mer homologous to ZRANB3 515-529, aligned on Q144. Check residues are not named in the paper. Termini chemistry not stated.

The target in this assay is His-tagged Proliferating Cell Nuclear Antigen (PCNA) (human, UniProt P12004 1-261). In words: ITC. On the technique in general: In ITC the heat of successive injections is recorded.
Chain of His-tagged Proliferating Cell Nuclear Antigen (PCNA) (P12004 whole entry): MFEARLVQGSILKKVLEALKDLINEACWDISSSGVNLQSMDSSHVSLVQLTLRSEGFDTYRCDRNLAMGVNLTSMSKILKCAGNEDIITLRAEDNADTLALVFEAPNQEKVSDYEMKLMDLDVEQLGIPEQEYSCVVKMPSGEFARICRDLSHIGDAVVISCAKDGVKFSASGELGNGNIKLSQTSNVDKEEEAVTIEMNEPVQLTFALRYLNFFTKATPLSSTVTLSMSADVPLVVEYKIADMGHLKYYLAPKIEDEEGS
The term Kd denotes the equilibrium constant for the complex coming apart. A lower Kd goes with tighter binding. B1 gave a Kd of 17.3 µM.

In the case of B2, the dissociation constant (Kd) stood at 5.45 µM.

The molecule B3 registered a Kd of 0.275 µM.
